Assay results as given in the supplement of paper PMC10567573.

B1: ZNF75A (parent)
chain: RTHTGEQPYTCSICRRNFSRRSSL
B2: FBF1 (parent)
chain: QLQCSPAELQAELLHSQARLAELE

Variants of: B1
Test: protein stability index of a GFP-peptide fusion (GPS, HEK-293T) (PSI 1-6); higher = more stable
Conditions: c terminus: a fixed tail appended
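Note: lentivirally expressed fusions sorted by FACS into six bins by GFP to DsRed ratio, PSI derived from sequencing read proportions per bin multiplied by bin number.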

Protein stability index: each site, then its substitutions
P8: S 2.81, F 3.09, V 3.4, N 3.01, E 3.95, Y 3.16, H 3.19, C 2.52, G 3.4, T 3.76, D 3.4, M 3.06, R 2.35, A 2.97, W 3.05, K 3.13, L 2.87, Q 2.85, I 2.99
I13: Q 2.74, R 2.96, E 2.71, H 2.81, D 2.65, F 2.65, L 2.25, C 2.71, A 2.54, M 2.21, Y 1.96, N 3.72, G 2.42, W 2.51, K 3.5, S 2.71, P 3.44, T 2.7, V 3.18
S12: N 2.52, R 3.07, G 2.38, K 2.63, M 2.41, T 2.82, H 3.13, C 2.4, I 2.53, V 2.98, A 2.21, D 3.1, E 2.26, P 3.14, F 2.83, W 2.21, L 2.04, Y 2.81, Q 2.61
G5: D 3.06, N 2.81, F 3.38, R 3.07, V 2.76, M 2.86, W 2.55, P 2.78, S 2.61, A 2.98, I 3.82, Y 2.21, E 3.45, T 3.25, Q 2.81, K 2.74, L 2.73, C 4.64, H 3.52
N17: K 3.78, A 3.22, L 1.88, C 3.01, I 2.18, G 2.75, D 2.3, E 2.19, F 2.36, H 2.61
C14: K 4.03, I 4.01, F 3.59, T 4.21, A 3.67, M 3.92, V 4.03, Y 3.66, L 3.5, W 2.68, G 4.72, E 4.42, N 4.11, Q 3.72, S 4.04, H 3.87, P 3.6, R 4.49, D 3.7
E6: C 3.96, Y 2.44, S 2.3, N 2.5, A 2.86, V 1.93, T 2.94, P 2.63, I 3.05, R 2.58, W 2.02, D 2.49, M 2.5, K 2.97, Q 2.62, L 2.52, G 2.55, H 3.12, F 3.33
R16: Y 1.59, N 1.99, W 1.37, A 1.99, L 1.27, M 2.43, G 2.05, E 2.53, Q 2.99, P 2.3, I 1.88, S 1.86, K 2.92, V 1.79, T 2.34, F 1.81, H 1.59, C 1.34, D 1.78
T2: D 3.02, I 2.63, W 2.17, Q 2.38, H 3.33, N 2.52, F 3.15, S 2.53, L 2.82, R 3.46, V 2.88, E 2.78, G 2.77, K 2.47, M 2.68, C 3.17, A 3.58, Y 2.81
C11: F 3.73, P 4.22, M 4.07, N 4, V 3.61, Y 3.3, H 3.94, E 4.09, K 3.93, W 3.77, G 3.37, I 3.79, D 4.34, L 3.61, A 3.92, T 4.58, S 3.86, Q 4.39, R 3.74
Y9: G 3.29, K 2.17, I 2.71, E 3.15, V 2.58, W 3.02, M 2.27, F 2.64, C 4.17, H 3.02, D 2.92, P 2.69, L 2.39, A 2.68, R 2.46, N 2.56, Q 2.32, T 2.51, S 2.55
T10: M 3.48, H 2.85, F 2.71, V 3.85, Y 2.5, S 2.01, P 3.09, R 2.57, E 2.37, G 2.18, D 3.48, L 2.88, Q 2.32, A 2.85, I 3.52, N 2.67, C 2.63, W 2.63, K 2.43
R15: M 1.6, S 2.47, G 2.93, C 2, Q 2.25, K 2.86, P 3.19, Y 1.89, A 2.13, V 1.7, H 2.49, D 2.02, W 2.02, L 1.54, F 1.85, I 2.32, N 2.84, T 2.34, E 2.03
T4: P 2.4, S 3.14, R 3.08, D 3.31, N 3.85, Y 3.04, K 2.77, L 2.96, V 3.29, A 2.8, F 3.28, W 2.1, C 2.15, E 3.27, Q 2.33, M 2.66, H 3.03, G 2.91, I 3.36
H3: K 3.06, N 3.82, C 2.85, I 3.08, V 2.65, G 2.76, W 2.15, S 3.16, A 2.69, R 3.47, P 3.17, L 2.75, M 2.57, T 2.76, D 3.18, Q 2.64, F 3.25, E 3.1, Y 2.73
Q7: E 3.43, V 2.41, L 2.7, T 2.49, S 2.24, P 2.57, W 2.83, F 2.8, M 2.68, H 2.63, A 3.14, D 3.42, R 2.96, K 2.59, N 2.6, Y 2.36, I 2.63, C 4.67, G 2.45
R1: H 3.93, D 3.34, Q 2.4, M 2.33, W 2.67, V 2.26, L 2.28, I 3.06, K 2.99, Y 2.46, P 3.15, N 3.26, E 3.62, C 5.09, F 2.12, A 3.23, S 3.07, G 3.82, T 3.14

Variants of: B2
Test: as above
Conditions: c terminus: a fixed tail appended

Protein stability index of substitutions, site by site:
L23: Y 3.26, W 3.71
E24: G 3.23, D 2.45, K 3.44, V 2.81, T 3.54, R 3.16, W 2.47, M 2.83, P 3.18, I 3.06, S 2.99, N 3.29, H 3.56, L 2.41, F 2.32, C 3.22, A 3.75, Y 2.36, Q 3.29
